Laboratory results taken from US20200332003A1.
Positions count from the first letter of the chain named. Values joined by “and” are separate entries in the source; they are usually repeats but may differ in a detail not shown here. Equal entries are not always repeated. Values belong to the binder of their own block, whether it stands above or below them.

Tests used:
[1] = biological target: T cell receptor with a beta-chain of the TRBV9 family on human peripheral blood T lymphocytes (human); test: flow cytometry of human blood mononuclear cells, FITC-labelled antibody at 270 ng per test (upper plot), co-stained with anti-CD3-eFluor 405 [upper plot]
[2] = biological target: TRBV9 + TRAV38 antigen; test: BLI (OctetRed 96), antigen immobilized on AR2G sensor, antibody 126-2 nM, 1:1 model
[3] = biological target: TRBV9 + TRAV26 antigen; test: as above
[4] = biological target: T cell receptor with a beta-chain of the TRBV9 family on human peripheral blood T lymphocytes (human); test: flow cytometry of human blood mononuclear cells, FITC-labelled antibody at 27 ng per test (lower plot), co-stained with anti-CD3-eFluor 405 [lower plot]
[5] = biological target: T cell receptor with a beta-chain of the TRBV9 family on human peripheral blood T lymphocytes (human); test: flow cytometry, FITC-labelled antibody at 5 ng/ul and 0.5 ng/ul on human mononuclear blood cells
[6] = biological target: T cell receptor with a beta-chain of the TRBV9 family on human peripheral blood T lymphocytes (human); test: cell sorting with the FITC-labelled antibody, then sequencing of TCR beta-chains

% of cells in the CD3+TRBV9+ gate (small rectangle) [1]: 1.6%
Kd [2]: 0.365 nM and 0.529 nM and 0.414 nM
koff [2]: 0.000205 s⁻¹ and 0.000196 s⁻¹ and 0.000183 s⁻¹
kon [2]: 562000 M⁻¹ s⁻¹ and 371000 M⁻¹ s⁻¹ and 441000 M⁻¹ s⁻¹
Kd [3]: 0.22 nM and 0.204 nM and 0.278 nM
koff [3]: 0.000114 s⁻¹ and 0.000113 s⁻¹ and 0.000183 s⁻¹
kon [3]: 559000 M⁻¹ s⁻¹ and 515000 M⁻¹ s⁻¹ and 658000 M⁻¹ s⁻¹
% of cells in the CD3+TRBV9+ gate (small rectangle) [4]: 3%
B1: anti-TRBV9-1 monoclonal antibody (antibody, human IgG1, kappa, V domains shown)
VH: QIQLVQSGPELREPGESVKLSCKASGYTFTDYLVHWVKQAPGKGLKWMGWINTYTGTPTYADDFEGRFVFSLEASASTANLQISNLKNEDTATYFCARSWRRGLRGLGFDYWGQGVFVTVSS
VL: DVQMTQSPYNLAASPGESVSINCKASKSINKYLAWYQQKPGKPNKLLIYDGSTLQSGIPSRFSGSGSGTDFTLTIRGLEPEDFGLYYCQQHNEYPPTFGAGTKLELKR

percent of the CD3-positive fraction stained [5]: 2.9%
percent of TCR beta-chain sequences of the sorted CD3+TRBV9+ fraction that belong to the TRBV9 family [6]: 90%
Kd [2]: < 0.001 nM
koff [2]: < 1e-07 s⁻¹
kon [2]: 397000 M⁻¹ s⁻¹ and 289000 M⁻¹ s⁻¹
kon [3]: 447000 M⁻¹ s⁻¹ and 381000 M⁻¹ s⁻¹
B2: anti-TRBV9-2 monoclonal antibody (antibody, human IgG1, kappa, V domains shown)
VH: B1 VH with L107I
VL: B1 VL

% of cells in the CD3+TRBV9+ gate (small rectangle) [1]: 3%
Kd [2]: 0.311 nM and 0.4 nM
koff [2]: 9.61e-05 s⁻¹ and 9.16e-05 s⁻¹
kon [2]: 309000 M⁻¹ s⁻¹ and 229000 M⁻¹ s⁻¹
Kd [3]: 0.319 nM and 0.582 nM
koff [3]: 9.16e-05 s⁻¹ and 9.8e-05 s⁻¹
kon [3]: 287000 M⁻¹ s⁻¹ and 168000 M⁻¹ s⁻¹
% of cells in the CD3+TRBV9+ gate (small rectangle) [4]: 2.6%
B3: anti-TRBV9-3 monoclonal antibody (antibody, human IgG1, kappa, V domains shown)
VH: B1 VH with L104I
VL: B1 VL

% of cells in the CD3+TRBV9+ gate (small rectangle) [1]: 2.9%
Kd [2]: < 0.001 nM
koff [2]: < 1e-07 s⁻¹
kon [2]: 713000 M⁻¹ s⁻¹ and 476000 M⁻¹ s⁻¹
Kd [3]: < 0.001 nM
koff [3]: < 1e-07 s⁻¹
kon [3]: 865000 M⁻¹ s⁻¹ and 579000 M⁻¹ s⁻¹
% of cells in the CD3+TRBV9+ gate (small rectangle) [4]: 2.4%
B4: anti-TRBV9-4 monoclonal antibody (antibody, human IgG1, kappa, V domains shown)
VH: B1 VH with L104I, L107I
VL: B1 VL
